Measurements taken from PMC11417369, “DNA sequence and chromatin differentiate sequence-specific transcription factor binding in the human malaria parasite Plasmodium falciparum”.

T1: SIP2 D1 (Plasmodium falciparum, UniProt C6KSN9 177-235)
T1 sequence: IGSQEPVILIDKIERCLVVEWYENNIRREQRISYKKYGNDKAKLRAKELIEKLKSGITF

B1: GTGCAC_negctrl_site96 (dsDNA)
DNA 1: ATTTTTTTATAAAATTTTTATATAATTTATTATAAA
DNA 2: TTTATAATAAATTATATAAAAATTTTATAAAAAAAT
B2: GTGCAC_negctrl_site265 (dsDNA)
DNA 1: TATTTTTTTTCTTTATTTATAACGCTCAATATATTC
DNA 2: GAATATATTGAGCGTTATAAATAAAGAAAAAAAATA
B3: GTGCAC_negctrl_site184 (dsDNA)
DNA 1: TATTCTATATTTCTATTTAGAAAACATCCCAGTGTG
DNA 2: CACACTGGGATGTTTTCTAAATAGAAATATAGAATA
B4: GTGCAC_negctrl_site407 (dsDNA)
DNA 1: AATGGAAAAAAAAAAATAAATACAAATAAATACAAA
DNA 2: TTTGTATTTATTTGTATTTATTTTTTTTTTTCCATT
B5: GTGCAC_negctrl_site515 (dsDNA)
DNA 1: GATATGATGAGATTGATATTCATAAGAGGATTAATG
DNA 2: CATTAATCCTCTTATGAATATCAATCTCATCATATC
B6: GTGCAC_negctrl_site686 (dsDNA)
DNA 1: TCTTATATGATATTTATTTATTTATTTATTTATTCA
DNA 2: TGAATAAATAAATAAATAAATAAATATCATATAAGA
B7: GTGCAC_negctrl_site95 (dsDNA)
DNA 1: GCAGTCAAAAAGGAAAATATAAAAAAAGTATATGTG
DNA 2: CACATATACTTTTTTTATATTTTCCTTTTTGACTGC
B8: GTGCAC_negctrl_site536 (dsDNA)
DNA 1: TGAAAAAATATAAAATATAAAATAAAAAATATAAAA
DNA 2: TTTTATATTTTTTATTTTATATTTTATATTTTTTCA
B9: GTGCAC_negctrl_site133 (dsDNA)
DNA 1: TCTTTTACAAAAGCTATAACATTCACCACATTATAA
DNA 2: TTATAATGTGGTGAATGTTATAGCTTTTGTAAAAGA
B10: GTGCAC_negctrl_site693 (dsDNA)
DNA 1: TGGACCAAACGACAAAAAAAAAGCAGAAAACAAAAA
DNA 2: TTTTTGTTTTCTGCTTTTTTTTTGTCGTTTGGTCCA
B11: GTGCAC_negctrl_site559 (dsDNA)
DNA 1: TTTTTTATTGTGAAACTGATATTATATTTTTTATAA
DNA 2: TTATAAAAAATATAATATCAGTTTCACAATAAAAAA
B12: GTGCAC_negctrl_site324 (dsDNA)
DNA 1: ATATGTAAAACTTCAAAAAAATATATTTTATGACGA
DNA 2: TCGTCATAAAATATATTTTTTTGAAGTTTTACATAT
B13: GTGCAC_negctrl_site288 (dsDNA)
DNA 1: TATTATTCATAATTTATCTTTTAAATTAAATCACAA
DNA 2: TTGTGATTTAATTTAAAAGATAAATTATGAATAATA
B14: GTGCAC_negctrl_site149 (dsDNA)
DNA 1: GCAAAATATTTAAAATAATATATGTGTATATTTTTA
DNA 2: TAAAAATATACACATATATTATTTTAAATATTTTGC
B15: GTGCAC_negctrl_site130 (dsDNA)
DNA 1: TTGTATTAATAATTTTTTATATTATAGTTTATAATA
DNA 2: TATTATAAACTATAATATAAAAAATTATTAATACAA
B16: GTGCAC_negctrl_site547 (dsDNA)
DNA 1: TTTTACAATAATAAGTAGATCTAAATAAAGATTTAA
DNA 2: TTAAATCTTTATTTAGATCTACTTATTATTGTAAAA
B17: GTGCAC_negctrl_site373 (dsDNA)
DNA 1: AATAAATTAAATAAAAATGTTTAACATAAAATATGA
DNA 2: TCATATTTTATGTTAAACATTTTTATTTAATTTATT
B18: GTGCAC_negctrl_site60 (dsDNA)
DNA 1: AACACAATAAAAATTAAAAATGTTAAGTAAATATAA
DNA 2: TTATATTTACTTAACATTTTTAATTTTTATTGTGTT
B19: GTGCAC_negctrl_site585 (dsDNA)
DNA 1: TTTTGATAGAAGTGTTCTAGGAATTCAACTGTAATA
DNA 2: TATTACAGTTGAATTCCTAGAACACTTCTATCAAAA
B20: GTGCAC_negctrl_site233 (dsDNA)
DNA 1: TAAACCTTAAAATATTTCTCATGTTTAACTTATATT
DNA 2: AATATAAGTTAAACATGAGAAATATTTTAAGGTTTA
B21: GTGCAC_negctrl_site46 (dsDNA)
DNA 1: TTGTAGGAATTTATTTTGACTGATAATTAATACGTT
DNA 2: AACGTATTAATTATCAGTCAAAATAAATTCCTACAA
B22: GTGCAC_negctrl_site386 (dsDNA)
DNA 1: AAGATAAACTTTTTTAATTAATTTAATTTTTTTTTT
DNA 2: AAAAAAAAAATTAAATTAATTAAAAAAGTTTATCTT
B23: GTGCAC_negctrl_site392 (dsDNA)
DNA 1: TTTATTATTATATTATTTTAATTTTTCTTTAGTACA
DNA 2: TGTACTAAAGAAAAATTAAAATAATATAATAATAAA
B24: GTGCAC_negctrl_site537 (dsDNA)
DNA 1: TGGTAACAGCATAGAAAATGGACAAACGAAATATAA
DNA 2: TTATATTTCGTTTGTCCATTTTCTATGCTGTTACCA
B25: GTGCAC_negctrl_site51 (dsDNA)
DNA 1: ATAAAAAATTTAAGTATTTTTTACAAACCTATAAAT
DNA 2: ATTTATAGGTTTGTAAAAAATACTTAAATTTTTTAT
B26: GTGCAC_negctrl_site250 (dsDNA)
DNA 1: TTTTTTTTTTTATATACTGGAAATATATTTAATTTA
DNA 2: TAAATTAAATATATTTCCAGTATATAAAAAAAAAAA
B27: GTGCAC_negctrl_site618 (dsDNA)
DNA 1: AAAAAAATTACATATCCATTTTAACATAATAAATAG
DNA 2: CTATTTATTATGTTAAAATGGATATGTAATTTTTTT
B28: GTGCAC_negctrl_site444 (dsDNA)
DNA 1: TTTTTCACATCTATAAATCATCTAATCAATATTTTT
DNA 2: AAAAATATTGATTAGATGATTTATAGATGTGAAAAA
B29: GTGCAC_negctrl_site363 (dsDNA)
DNA 1: ATTAGAGAATCGTAACCCAAATGAACATACTTAAAT
DNA 2: ATTTAAGTATGTTCATTTGGGTTACGATTCTCTAAT
B30: GTGCAC_negctrl_site169 (dsDNA)
DNA 1: ATAAGAAGGAACATAAATATATCATAAAAAAAAAAA
DNA 2: TTTTTTTTTTTATGATATATTTATGTTCCTTCTTAT
B31: GTGCAC_negctrl_site12 (dsDNA)
DNA 1: AATAAAAAAATAAAAAAAAAAAAAAATAAAAAAAAA
DNA 2: TTTTTTTTTATTTTTTTTTTTTTTTATTTTTTTATT
B32: GTGCAC_negctrl_site187 (dsDNA)
DNA 1: AGGAAACAAGAAATGAAGAATCATGTAGAAGGCCCA
DNA 2: TGGGCCTTCTACATGATTCTTCATTTCTTGTTTCCT
B33: GTGCAC_negctrl_site383 (dsDNA)
DNA 1: TTTTGTTTTGTTTTGTTTTGTTTTGTTTTATTTTAT
DNA 2: ATAAAATAAAACAAAACAAAACAAAACAAAACAAAA
B34: GTGCAC_negctrl_site389 (dsDNA)
DNA 1: TATTATAAATTAATTTTAAACTTTATTATTATGATA
DNA 2: TATCATAATAATAAAGTTTAAAATTAATTTATAATA
B35: GTGCAC_negctrl_site299 (dsDNA)
DNA 1: AGAGAAAGAAGGGAGAAAAAATAAAATAAAATAAAA
DNA 2: TTTTATTTTATTTTATTTTTTCTCCCTTCTTTCTCT
B36: GTGCAC_negctrl_site315 (dsDNA)
DNA 1: ATATACTATTAACCACATATGTGTGTTAATTTATAT
DNA 2: ATATAAATTAACACACATATGTGGTTAATAGTATAT
B37: GTGCAC_negctrl_site79 (dsDNA)
DNA 1: TTTTAAAAAAGAAAAAAAAAGGATCAGAGAAATATT
DNA 2: AATATTTCTCTGATCCTTTTTTTTTCTTTTTTAAAA
B38: GTGCAC_negctrl_site11 (dsDNA)
DNA 1: TCTTATAACAAAAAAAAATAAAAAATAAAACTATAT
DNA 2: ATATAGTTTTATTTTTTATTTTTTTTTGTTATAAGA
B39: GTGCAC_negctrl_site477 (dsDNA)
DNA 1: AAAAAAAATTTTCTTCTGTTGTATTTTTTATACGTT
DNA 2: AACGTATAAAAAATACAACAGAAGAAAATTTTTTTT
B40: GTGCAC_negctrl_site53 (dsDNA)
DNA 1: TGAAAAATTACAAAAATAATAAAATGAAATAATAAA
DNA 2: TTTATTATTTCATTTTATTATTTTTGTAATTTTTCA
B41: GTGCAC_negctrl_site320 (dsDNA)
DNA 1: TTTTCTAAAATATTCATAATAAATCAAAAAAAAAAA
DNA 2: TTTTTTTTTTTGATTTATTATGAATATTTTAGAAAA
B42: GTGCAC_negctrl_site69 (dsDNA)
DNA 1: AACAGATAATATAAAAAAAAAAAAAAAAATAATTAA
DNA 2: TTAATTATTTTTTTTTTTTTTTTTATATTATCTGTT
B43: GTGCAC_negctrl_site445 (dsDNA)
DNA 1: TATGGTGTAATTTAGTGTATTATATTATTTTGGTTG
DNA 2: CAACCAAAATAATATAATACACTAAATTACACCATA
B44: GTGCAC_negctrl_site581 (dsDNA)
DNA 1: AAAAAAAAATATATATAAAATTAAAAAATGTAATAT
DNA 2: ATATTACATTTTTTAATTTTATATATATTTTTTTTT

Biological target: T1, SIP2 D1
Experiment: gcPBM; about 25 ug protein; PBS, 1% milk, 0.2 mg/ml BSA, salmon testes DNA, 0.03% Triton X-100
Conditions: tags: N-terminal GST (pGEX-4T-1), kept; label: surface-attached array probe

Binder	binding signal
B1	6.82 ln median PBM intensity, better of two orientations
B2	6.85 ln median PBM intensity, better of two orientations
B3	6.86 ln median PBM intensity, better of two orientations
B4	6.81 ln median PBM intensity, better of two orientations
B5	6.75 ln median PBM intensity, better of two orientations
B6	6.77 ln median PBM intensity, better of two orientations
B7	6.87 ln median PBM intensity, better of two orientations
B8	6.67 ln median PBM intensity, better of two orientations
B9	6.79 ln median PBM intensity, better of two orientations
B10	6.81 ln median PBM intensity, better of two orientations
B11	6.71 ln median PBM intensity, better of two orientations
B12	6.82 ln median PBM intensity, better of two orientations
B13	6.81 ln median PBM intensity, better of two orientations
B14	6.73 ln median PBM intensity, better of two orientations
B15	6.82 ln median PBM intensity, better of two orientations
B16	6.73 ln median PBM intensity, better of two orientations
B17	6.67 ln median PBM intensity, better of two orientations
B18	6.71 ln median PBM intensity, better of two orientations
B19	6.81 ln median PBM intensity, better of two orientations
B20	6.73 ln median PBM intensity, better of two orientations
B21	6.8 ln median PBM intensity, better of two orientations
B22	6.66 ln median PBM intensity, better of two orientations

Binder	binding signal
B23	6.89 ln median PBM intensity, better of two orientations
B24	6.79 ln median PBM intensity, better of two orientations
B25	6.78 ln median PBM intensity, better of two orientations
B26	6.78 ln median PBM intensity, better of two orientations
B27	6.84 ln median PBM intensity, better of two orientations
B28	6.76 ln median PBM intensity, better of two orientations
B29	6.72 ln median PBM intensity, better of two orientations
B30	6.73 ln median PBM intensity, better of two orientations
B31	6.76 ln median PBM intensity, better of two orientations
B32	6.71 ln median PBM intensity, better of two orientations
B33	6.74 ln median PBM intensity, better of two orientations
B34	6.7 ln median PBM intensity, better of two orientations
B35	6.83 ln median PBM intensity, better of two orientations
B36	6.87 ln median PBM intensity, better of two orientations
B37	6.69 ln median PBM intensity, better of two orientations
B38	6.87 ln median PBM intensity, better of two orientations
B39	6.77 ln median PBM intensity, better of two orientations
B40	6.68 ln median PBM intensity, better of two orientations
B41	6.79 ln median PBM intensity, better of two orientations
B42	6.71 ln median PBM intensity, better of two orientations
B43	6.86 ln median PBM intensity, better of two orientations
B44	6.85 ln median PBM intensity, better of two orientations
